According to article doi:10.1101/2020.12.18.423418:

Biological target: SARS-CoV-2 S1 protein containing a C-terminal His-tag (Acro; S1N-C52H3) (SARS-CoV-2) (UniProt P0DTC2)
Assay: flow cytometry on cells

recombinant fragment of human surfactant protein D (rfhSP-D) (from UniProt P35247 199-375) (domain or fragment)
percent reduction of S1 binding to ACE2 on cells at 10 μg/ml rfhSP-D: 35%
